Experimental findings from article PMC12908443 (Nature metabolism, 2021) are described below.

In assay [1] the target is T1, Recombinant 6 × His-tagged Acs2 (Acs2–His6) (budding yeast (S. cerevisiae), UniProt P52910 1-683).
T1 sequence (looked up): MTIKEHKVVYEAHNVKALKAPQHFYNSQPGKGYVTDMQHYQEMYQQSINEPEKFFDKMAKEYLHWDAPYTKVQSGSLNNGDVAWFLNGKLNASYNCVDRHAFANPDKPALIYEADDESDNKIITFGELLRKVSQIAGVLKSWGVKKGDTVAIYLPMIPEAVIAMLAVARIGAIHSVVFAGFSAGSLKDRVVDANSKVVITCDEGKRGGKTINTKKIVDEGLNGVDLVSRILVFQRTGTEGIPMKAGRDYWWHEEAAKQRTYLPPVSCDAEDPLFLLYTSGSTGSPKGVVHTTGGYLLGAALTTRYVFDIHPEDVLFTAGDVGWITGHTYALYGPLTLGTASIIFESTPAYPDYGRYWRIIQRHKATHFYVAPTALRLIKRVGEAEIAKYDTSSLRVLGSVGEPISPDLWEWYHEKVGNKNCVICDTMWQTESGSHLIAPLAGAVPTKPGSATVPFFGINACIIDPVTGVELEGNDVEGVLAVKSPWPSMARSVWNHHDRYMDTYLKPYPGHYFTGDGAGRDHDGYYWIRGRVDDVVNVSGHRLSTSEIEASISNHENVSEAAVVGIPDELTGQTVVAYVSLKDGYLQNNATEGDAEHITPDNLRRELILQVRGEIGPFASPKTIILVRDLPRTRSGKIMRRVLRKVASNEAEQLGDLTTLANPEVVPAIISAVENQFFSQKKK
As to the kind of experiment: pull-down.

In assay [2] the target is T2, Glutathione S-transferase (GST)–Acs2 (budding yeast (S. cerevisiae), UniProt P52910 1-683).
T2 sequence (looked up): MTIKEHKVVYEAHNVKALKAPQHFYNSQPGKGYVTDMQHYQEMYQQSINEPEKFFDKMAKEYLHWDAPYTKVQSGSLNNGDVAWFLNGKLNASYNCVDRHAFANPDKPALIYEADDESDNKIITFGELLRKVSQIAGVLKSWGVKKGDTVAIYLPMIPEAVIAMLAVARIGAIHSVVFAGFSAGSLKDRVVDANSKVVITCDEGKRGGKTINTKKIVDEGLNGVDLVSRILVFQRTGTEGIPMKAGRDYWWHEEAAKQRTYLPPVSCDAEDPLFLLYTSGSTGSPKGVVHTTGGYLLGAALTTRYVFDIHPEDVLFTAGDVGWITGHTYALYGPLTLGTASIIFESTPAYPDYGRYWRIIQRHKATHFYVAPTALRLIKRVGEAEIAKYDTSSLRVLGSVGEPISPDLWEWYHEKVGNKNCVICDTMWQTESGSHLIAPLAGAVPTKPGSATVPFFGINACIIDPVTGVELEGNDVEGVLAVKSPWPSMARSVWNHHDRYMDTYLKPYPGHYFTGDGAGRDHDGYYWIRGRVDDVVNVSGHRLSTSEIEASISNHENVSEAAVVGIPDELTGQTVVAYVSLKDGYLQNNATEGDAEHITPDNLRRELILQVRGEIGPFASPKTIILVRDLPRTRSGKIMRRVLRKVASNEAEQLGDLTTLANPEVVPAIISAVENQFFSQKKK
Description: pull-down.

B1: Recombinant CL7-tagged Sas2 (Sas2–CL7) (enzyme, budding yeast (S. cerevisiae), UniProt P40963 1-338, looked up)
chain: MARSLSQSLTATTQKLKGKKNGGKGKNKPSAKIKKTQKEMLYGILNERNIRQIQFGLNKKFSTWYGSAVYFDPETKRLGCSETKGQLSSVSNSQYWLDTLFVCEYCFKYTDDQTRFVGHVASCPFQYRVPGKIKYKSPEYTIRRVKGSKYQLFCQCLCLFTKLYLDNKSMYFKVDHYEFYIVYETGSTKPMGFFSKDLVSYQQNNLACILIFPPYQRRGLGLLLIEFSYKLSQLEGVISGPEVPLSPFGLIGYLKYWSQILCWHLIEGDLAHYDKVTLEDLSIVTGMRVNDVILTLKHLNCIGENNQIYLQSLNSWLKLHGTKRNWFKLKDEYLLIDD
Consider B1, for which the binding result in assay [1] was “binds”.

B2: Purified recombinant Sas2 (Sas2–His6) (enzyme, budding yeast (S. cerevisiae), UniProt P40963 1-338, looked up)
chain: MARSLSQSLTATTQKLKGKKNGGKGKNKPSAKIKKTQKEMLYGILNERNIRQIQFGLNKKFSTWYGSAVYFDPETKRLGCSETKGQLSSVSNSQYWLDTLFVCEYCFKYTDDQTRFVGHVASCPFQYRVPGKIKYKSPEYTIRRVKGSKYQLFCQCLCLFTKLYLDNKSMYFKVDHYEFYIVYETGSTKPMGFFSKDLVSYQQNNLACILIFPPYQRRGLGLLLIEFSYKLSQLEGVISGPEVPLSPFGLIGYLKYWSQILCWHLIEGDLAHYDKVTLEDLSIVTGMRVNDVILTLKHLNCIGENNQIYLQSLNSWLKLHGTKRNWFKLKDEYLLIDD
Turning to B2, the binding result in assay [2] is on record as “binds”.
